In publication PMC10986502:

Tested on: His6-Fur (Riemerella anatipestifer CH-1)
Experiment: EMSA
Details: 5 mM Mn2+ (surrogate for Fe2+); EMSA: 2.5% glycerol, 0.05% NP-40, 5 mM MgCl2, 1 uM ZnSO4, 5 mM MnCl2; 1 ug DNA, 2-8 ug Fur in 20 uL; room temperature 20 min; pH and salt not given; 6% native …

rhuB promoter (194 bp) showed a Kd of 4.3 nM.
